Measured values: PMC3241647 (Nucleic Acids Research, 2011)

Target: the molecule itself
Experiment: SEC

B1: Bacillus subtilis Zur C84S (natural protein)
chain: not shown
  stoichiometry N: 2

B2: Bacillus subtilis Zur H90A (natural protein)
chain: not shown
  binding result: binds

B3: Bacillus subtilis Zur H89A (natural protein)
chain: not shown
  binding result: binds
